# Square brackets hold non-standard residues; d marks the D form. Ends that are not written are not given here. F2Pmab = 2-amino-4,4-difluoro-3-methyl-4-phosphobutanoic acid (p-Thr mimetic); pT = C[C@@H](OP(=O)(O)O)[C@H](N)C(=O)O
# Tests used:
# [1] = target: Plk1 PBD (purified recombinant) (human); experiment: ITC
# [2] = target: Plk2 PBD (purified recombinant); experiment: ITC
# Plk1 = Plk1 (Homo sapiens, UniProt P53350); experiment: Peptide pull-down of Plk1 from HeLa lysates with bead-immobilized peptides
# Chain of Plk1 (P53350 367-603 limits assumed): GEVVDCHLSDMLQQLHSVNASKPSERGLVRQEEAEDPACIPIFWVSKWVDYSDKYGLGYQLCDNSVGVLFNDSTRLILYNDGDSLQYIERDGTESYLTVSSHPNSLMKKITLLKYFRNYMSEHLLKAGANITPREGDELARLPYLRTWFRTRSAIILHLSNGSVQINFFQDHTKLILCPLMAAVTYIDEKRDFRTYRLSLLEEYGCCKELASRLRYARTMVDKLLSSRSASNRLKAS
# Chain of Plk2 PBD (purified recombinant) (Q9NYY3 whole entry): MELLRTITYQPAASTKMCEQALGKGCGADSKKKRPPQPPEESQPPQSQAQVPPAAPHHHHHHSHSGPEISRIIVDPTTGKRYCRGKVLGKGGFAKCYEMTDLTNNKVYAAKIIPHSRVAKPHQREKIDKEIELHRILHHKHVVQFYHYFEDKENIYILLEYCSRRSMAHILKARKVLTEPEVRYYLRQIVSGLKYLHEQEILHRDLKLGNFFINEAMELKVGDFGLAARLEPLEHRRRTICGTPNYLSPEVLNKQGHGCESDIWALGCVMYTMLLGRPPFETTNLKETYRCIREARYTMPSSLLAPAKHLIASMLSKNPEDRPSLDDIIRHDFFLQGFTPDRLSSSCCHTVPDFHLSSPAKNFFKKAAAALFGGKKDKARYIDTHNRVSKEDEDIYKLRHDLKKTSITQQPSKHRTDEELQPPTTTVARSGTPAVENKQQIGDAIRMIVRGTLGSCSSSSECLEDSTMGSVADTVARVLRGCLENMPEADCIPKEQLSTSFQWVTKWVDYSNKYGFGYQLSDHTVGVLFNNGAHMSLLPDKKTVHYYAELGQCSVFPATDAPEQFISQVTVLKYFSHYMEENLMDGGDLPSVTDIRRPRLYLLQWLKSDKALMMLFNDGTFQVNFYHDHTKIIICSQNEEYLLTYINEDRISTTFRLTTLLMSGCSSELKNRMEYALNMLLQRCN
Molecule,dH [1],Kd [1],calorimetric initial heat of interaction [2],Plk1 binding in peptide pull-down (in words) (Plk1)
"LHSpTA, N-terminally acetylated (peptide)",-9.9 kcal/mol,–,–,–
Ac-PLHSpT (peptide),–,445 nM,–,–
"PLQSpT, N-terminally acetylated (peptide)",–,–,-1.1 kcal/mol,–
PLHA-Pmab (PLHAT),–,–,–,abolished the Plk1 binding
"MQSpTPL, N-terminally acetylated (peptide)",-10 kcal/mol,–,-1.68 kcal/mol,–
"PLHS-F2Pmab-A: 6-mer p-T78 mimetic peptide containing 2-amino-4,4-difluoro-3-methyl-4-phosphobutanoic acid (F2Pmab) (PLHS[F2Pmab]A-NH2)",–,–,–,precipitated Plk1
"Ac-LHS[pT]AI [LHSpTAI, N-terminally acetylated]",-11.3 kcal/mol,247 nM,–,–
"Ac-PLHS[pT]A [PLHSpTA, N-terminally acetylated]",-11.6 kcal/mol,262 nM,–,–
"Ac-HS[pT]A [HSpTA, N-terminally acetylated]",-3.82 kcal/mol,19500 nM,–,–
"Ac-LHS[pT] [LHSpT, N-terminally acetylated]",-6.29 kcal/mol,22100 nM,–,–

# Reference: publication PMC2721907 (Nature structural & molecular biology, 2009)
